Where a chain is given by its changes, count along the chain named.
Assays:
[1] = target: T1, cynomolgus monkey FcγRIII-GST (cynomolgus monkey, UniProt Q8SPW2 17-208); test: ELISA, cynomolgus monkey FcγRIII-GST coated at 4 µg/ml, antibody titrated, HRP-Protein L detection
T1 construct: GST fusion form made in Expi293F cells, purified on glutathione resin; not shown: GST fusion partner
Method: Specifically, 50 μl of mouse FcγRIV-GST and cynomolgus monkey FcγRIII-GST diluted to 4 μg/ml in 0.05 M Na₂CO₃ pH 9.6 were immobilized on a flat bottom polystyrene high bind 96-well plate (Costar, 3590) for 16 hours at 4° C., respectively, and then blocked with 100 μl of 4% skim milk (GenomicBase, SKI400) at room temperature for 2 hours. […] After washing, antibody reaction was performed for 1 hour at room temperature, and then washed using 50 μl of HRP-Protein L (GenScript, M00098). 50 μl of a 1-Step Ultra TMB-ELISA substrate solution (Thermo Fisher Scientific, 34028) was added to develop color, and then added with 50 μl each of 2 M H₂SO₄ to terminate the reaction. Absorbance was measured using an Epoch microplate spectrophotometer (BioTek).

FcγRIIIa-158F-GST = target: T2, FcγRIIIa-158F-GST (human, UniProt P08637 17-208); test: ELISA, FcγRIIIa-158F-GST coated at 4 µg/ml, antibody titrated, HRP-Protein L detection
T2 construct: not shown: GST (glutathione S-transferase) fusion partner
Method: After washing, antibody reaction was performed for 1 hour at room temperature, and then washed using 50 μl of HRP-Protein L (GenScript, M00098). 50 μl of a 1-Step Ultra TMB-ELISA substrate solution (Thermo Fisher Scientific, 34028) was added to develop color, and then added with 50 μl each of 2 M H₂SO₄ to terminate the reaction. Absorbance was measured using an Epoch microplate spectrophotometer (BioTek).

T1 sequence (Q8SPW2 17-208): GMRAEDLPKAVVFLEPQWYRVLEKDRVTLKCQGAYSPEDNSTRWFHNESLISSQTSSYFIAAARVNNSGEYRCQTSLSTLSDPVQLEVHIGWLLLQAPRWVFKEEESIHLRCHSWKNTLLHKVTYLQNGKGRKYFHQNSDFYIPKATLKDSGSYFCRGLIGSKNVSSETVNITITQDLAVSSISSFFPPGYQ
T2 sequence (P08637 17-208): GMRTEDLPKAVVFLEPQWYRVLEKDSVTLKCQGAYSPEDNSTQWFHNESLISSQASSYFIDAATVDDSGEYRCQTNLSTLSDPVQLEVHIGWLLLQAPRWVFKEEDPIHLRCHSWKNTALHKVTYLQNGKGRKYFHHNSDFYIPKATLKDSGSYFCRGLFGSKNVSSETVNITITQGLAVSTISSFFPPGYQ

B1: rituximab Fc variant RTX-PS101 (antibody, human IgG1, kappa)
heavy: QVQLQQPGAELVKPGASVKMSCKASGYTFTSYNMHWVKQTPGRGLEWIGAIYPGNGDTSYNQKFKGKATLTADKSSSTAYMQLSSLTSEDSAVYYCARSTYYGGDWYFNVWGAGTTVTVSAASTKGPSVFPLAPSSKSTSGGTAALGCLVKDYFPEPVTVSWNSGALTSGVHTFPAVLQSSGLYSLSSVVTVPSSSLGTQTYICNVNHKPSNTKVDKKAEPKSCDKTHTCPPCPAPELLGGPSVFLLPPKIKDTLMISRTPEVTCVVVDVSHEDPEVKFNWYVDGVEVHNAKTKPPEEQYNSTLRVVSILTVLHQDWLNGKEYKCKVSNKALPLPEEKTISKQKGQPREPQVYTLPPSRDELTKNQVSLTCLVKGFYPSDIAVEWESNGQQENNYKTTPPVLDSDGSFFLYSKLTVDKSRWQQGNVFSCSVMHEALHNHYTQKSLSLSPGK
light: QIVLSQSPAILSASPGEKVTMTCRASSSVSYIHWFQQKPGSSPKPWIYATSNLASGVPVRFSGSGSGTSYSLTISRVEAEDAATYYCQQWTSNPPTFGGGTKLEIKRTVAAPSVFIFPPSDEQLKSGTASVVCLLNNFYPREAKVQWKVDNALQSGNSQESVTEQDSKDSTYSLSSTLTLSKADYEKHKVYACEVTHQGLSSPVTKSFNRGEC
[1]
  EC50 (read off the curve): ~3 nM
FcγRIIIa-158F-GST
  EC50 (read off the curve): ~3 nM

B2: rituximab Fc variant RTX-PS107 (antibody, human IgG1, kappa)
heavy: B1 heavy with D360G
light: B1 light
[1]
  EC50 (read off the curve): ~3 nM
FcγRIIIa-158F-GST
  EC50 (read off the curve): ~3 nM

B3: rituximab Fc variant RTX-PS102 (antibody)
heavy: B1 heavy with H228R, V307I
light: B1 light
[1]
  EC50 (read off the curve): ~3 nM

Reference: patent publication US20250188185A1 (KOREA UNIVERSITY RESEARCH AND BUSINESS FOUNDATION, published 2025)
